Read-outs that look alike come from different tables or passages of the source.
Key:
[1] = target: T1, SARS-CoV-2 Spike RBD (SARS-CoV-2, UniProt P0DTC2 319-541); details: protein: commercial; tags: C-terminal 6xHis; label: 5'-FAM
[2] = target: T1, SARS-CoV-2 Spike RBD

B1: FAM-Aptamer (ssDNA)
DNA: CAGCACCGACCTTGTGCTTTGGGAGTGCTGGTCCAAGGGCGTTAATGGACA
B1: binds [1].

B2: Aptamer (ssDNA)
DNA: B1 DNA
B2: binds [2].

From paper PMC10052277, “Detection of SARS-CoV-2 receptor binding domain using fluorescence probe and DNA flowers enabled by rolling circle amplification”
